Kd data for 4 molecules are collected here from patent US10766960 (dated 2020).

The term Kd denotes the concentration at which binding is half-saturated.

Holding throughout (assay): SPR
(SPR reads the build-up and loss of mass on a sensor chip optically.)

For one experiment, the target named is FcgRIIIa V (human, UniProt P08637).
The target in the next experiment is T1, FcgRIa (human, UniProt P12314).
T1 chain: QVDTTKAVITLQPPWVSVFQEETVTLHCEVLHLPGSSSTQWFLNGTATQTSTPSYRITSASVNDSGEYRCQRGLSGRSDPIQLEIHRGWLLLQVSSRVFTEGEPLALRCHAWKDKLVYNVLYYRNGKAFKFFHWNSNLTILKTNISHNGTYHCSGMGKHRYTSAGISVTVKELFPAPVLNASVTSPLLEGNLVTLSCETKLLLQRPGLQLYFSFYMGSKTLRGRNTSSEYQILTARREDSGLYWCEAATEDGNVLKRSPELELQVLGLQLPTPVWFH

The target of another experiment is T2, FcgRIIb (human, UniProt P31994).
T2 chain: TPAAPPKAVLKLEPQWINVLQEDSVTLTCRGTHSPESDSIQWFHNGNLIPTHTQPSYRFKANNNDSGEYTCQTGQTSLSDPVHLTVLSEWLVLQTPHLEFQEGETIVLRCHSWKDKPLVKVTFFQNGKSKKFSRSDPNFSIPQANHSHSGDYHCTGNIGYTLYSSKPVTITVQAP

A further experiment has as its target FcgRIIIa F (human, UniProt P08637).
The next experiment deals with T3, FcgRIIa H (human, UniProt P12318).
T3 chain: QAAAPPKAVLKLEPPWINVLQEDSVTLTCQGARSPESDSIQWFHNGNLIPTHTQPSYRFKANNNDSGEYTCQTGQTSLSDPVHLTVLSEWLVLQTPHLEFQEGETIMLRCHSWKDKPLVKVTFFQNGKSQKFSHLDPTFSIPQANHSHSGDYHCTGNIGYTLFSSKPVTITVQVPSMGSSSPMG

The target of the next experiment is T4, FcgRIIa R (human, UniProt P12318).
T4 chain: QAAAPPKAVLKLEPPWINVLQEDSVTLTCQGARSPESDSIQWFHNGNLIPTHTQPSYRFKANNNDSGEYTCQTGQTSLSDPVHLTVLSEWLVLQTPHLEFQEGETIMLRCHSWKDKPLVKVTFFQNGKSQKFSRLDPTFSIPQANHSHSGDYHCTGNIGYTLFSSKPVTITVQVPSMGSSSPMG

Sequence of FcgRIIIa F (P08637 17-208): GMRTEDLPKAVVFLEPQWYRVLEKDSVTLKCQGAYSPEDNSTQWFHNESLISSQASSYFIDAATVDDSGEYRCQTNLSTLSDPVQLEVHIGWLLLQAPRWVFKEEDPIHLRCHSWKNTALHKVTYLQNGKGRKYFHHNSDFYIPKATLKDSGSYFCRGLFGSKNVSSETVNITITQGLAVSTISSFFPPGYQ
Sequence of FcgRIIIa V (P08637 17-208 F176V): as the sequence (P08637 17-208) above, with F160V counted along it

B1: H240-Kn233/H240-Hl068/L73-k0 (antibody)
chain 1: QDQLVQSGAEVKKPGASVKVSCKASGFNIKDTYIQWVRQAPGQGLEWMGRIDPLRKQTKYREKFEGRVTITADTSTNTAYMELSSLRSEDTAVYYCVRSGREFDYWGQGTLVTVSSASTKGPSVFPLAPSSKSTSGGTAALGCLVKDYFPEPVTVSWNSGALTSGVHTFPAVLQSSGLYSLSSVVTVPSSSLGTQTYICNVNHKPSNTKVDKKVEPKSCDKTHTCPPCPAPEEYWGPIVFLFPPKPKDTLMISRTPEVTCVVVDVSDEDPEVKFNWYVDGVEVHNAKTKPREEQYNATYRVVSVLTVLHQDWLNGKEYKCKVSNKDLPAPIEKTISKAKGQPREPQVCTLPPSRDELTKNQVSLWCLVKGFYPSDIAVEWESNGQPENNYKTTPPVLDSDGSFFLYSKLTVDKSRWQQGNVFSCSVMHEALHNHYTQKSLSLSP
chain 2: QDQLVQSGAEVKKPGASVKVSCKASGFNIKDTYIQWVRQAPGQGLEWMGRIDPLRKQTKYREKFEGRVTITADTSTNTAYMELSSLRSEDTAVYYCVRSGREFDYWGQGTLVTVSSASTKGPSVFPLAPSSKSTSGGTAALGCLVKDYFPEPVTVSWNSGALTSGVHTFPAVLQSSGLYSLSSVVTVPSSSLGTQTYICNVNHKPSNTKVDKKVEPKSCDKTHTCPPCPAPELLGGPSVFLFPPKPKDTLMISRTPEVTCVVVDVSHEEPEVKFNWYVDGVEVHNAKTKPREEQYNSTYRVVSVLTVLHQDWLNGKEYKCKVSNDALPKPIEETISKAKGQPREPQVYTLPPSRCELTKNQVSLSCAVKGFYPSDIAVEWESNGQPENNYKTTPPVLDSDGSFFLVSKLTVDKSRWQQGNVFSCSVMHEALHNHYTQKSLSLSP
chain 3: DIQMTQSPSSLSASVGDRVTITCRASQDIHKYIAWYQQKPGQAPRLLIQYTSTLQPGVPSRFSGSGSGTDYTFTISSLQPEDIATYYCLQYEQLRTFGGGTKVEIKRTVAAPSVFIFPPSDEQLKSGTASVVCLLNNFYPREAKVQWKVDNALQSGNSQESVTEQDSKDSTYSLSSTLTLSKADYEKHKVYACEVTHQGLSSPVTKSFNRGEC
Consider B1, for which the Kd with FcgRIIIa V came out at 0.75 nM; with FcgRIa, 0.18 nM; with FcgRIIb, 210 nM; with FcgRIIIa F, 2.5 nM; with FcgRIIa H, 66 nM; with FcgRIIa R, 21 nM.

B2: H240-Kn202/H240-Hl068/L73-k0 (antibody)
chain 1: QDQLVQSGAEVKKPGASVKVSCKASGFNIKDTYIQWVRQAPGQGLEWMGRIDPLRKQTKYREKFEGRVTITADTSTNTAYMELSSLRSEDTAVYYCVRSGREFDYWGQGTLVTVSSASTKGPSVFPLAPSSKSTSGGTAALGCLVKDYFPEPVTVSWNSGALTSGVHTFPAVLQSSGLYSLSSVVTVPSSSLGTQTYICNVNHKPSNTKVDKKVEPKSCDKTHTCPPCPAPEEQWGPMVFLFPPKPKDTLMISRTPEVTCVVVDVSDEEPEVKFNWYVDGVEVHNAKTKPREEQYNATYRVVSVLTVLHQDWLNGKEYKCKVSNKALPAPIEKTISKAKGQPREPQVCTLPPSRDELTKNQVSLWCLVKGFYPSDIAVEWESNGQPENNYKTTPPVLDSDGSFFLYSKLTVDKSRWQQGNVFSCSVMHEALHNHYTQKSLSLSP
chain 2: QDQLVQSGAEVKKPGASVKVSCKASGFNIKDTYIQWVRQAPGQGLEWMGRIDPLRKQTKYREKFEGRVTITADTSTNTAYMELSSLRSEDTAVYYCVRSGREFDYWGQGTLVTVSSASTKGPSVFPLAPSSKSTSGGTAALGCLVKDYFPEPVTVSWNSGALTSGVHTFPAVLQSSGLYSLSSVVTVPSSSLGTQTYICNVNHKPSNTKVDKKVEPKSCDKTHTCPPCPAPELLGGPSVFLFPPKPKDTLMISRTPEVTCVVVDVSHEEPEVKFNWYVDGVEVHNAKTKPREEQYNSTYRVVSVLTVLHQDWLNGKEYKCKVSNDALPKPIEETISKAKGQPREPQVYTLPPSRCELTKNQVSLSCAVKGFYPSDIAVEWESNGQPENNYKTTPPVLDSDGSFFLVSKLTVDKSRWQQGNVFSCSVMHEALHNHYTQKSLSLSP
chain 3: DIQMTQSPSSLSASVGDRVTITCRASQDIHKYIAWYQQKPGQAPRLLIQYTSTLQPGVPSRFSGSGSGTDYTFTISSLQPEDIATYYCLQYEQLRTFGGGTKVEIKRTVAAPSVFIFPPSDEQLKSGTASVVCLLNNFYPREAKVQWKVDNALQSGNSQESVTEQDSKDSTYSLSSTLTLSKADYEKHKVYACEVTHQGLSSPVTKSFNRGEC
In the case of B2, the equilibrium dissociation constant (Kd) was determined as 0.66 nM with FcgRIIIa V; 0.4 nM with FcgRIa; 1400 nM in the experiment with FcgRIIb; 2.5 nM with FcgRIIIa F; 120 nM with FcgRIIa H; 200 nM with FcgRIIa R.

B3: H240-Kn231/H240-Hl068/L73-k0 (antibody)
chain 1: QDQLVQSGAEVKKPGASVKVSCKASGFNIKDTYIQWVRQAPGQGLEWMGRIDPLRKQTKYREKFEGRVTITADTSTNTAYMELSSLRSEDTAVYYCVRSGREFDYWGQGTLVTVSSASTKGPSVFPLAPSSKSTSGGTAALGCLVKDYFPEPVTVSWNSGALTSGVHTFPAVLQSSGLYSLSSVVTVPSSSLGTQTYICNVNHKPSNTKVDKKVEPKSCDKTHTCPPCPAPEIYWGPIVFLFPPKPKDTLMISRTPEVTCVVVDVSDEDPEVKFNWYVDGVEVHNAKTKPREEQYNATYRVVSVLTVLHQDWLNGKEYKCKVSNKDLPAPIEKTISKAKGQPREPQVCTLPPSRDELTKNQVSLWCLVKGFYPSDIAVEWESNGQPENNYKTTPPVLDSDGSFFLYSKLTVDKSRWQQGNVFSCSVMHEALHNHYTQKSLSLSP
chain 2: QDQLVQSGAEVKKPGASVKVSCKASGFNIKDTYIQWVRQAPGQGLEWMGRIDPLRKQTKYREKFEGRVTITADTSTNTAYMELSSLRSEDTAVYYCVRSGREFDYWGQGTLVTVSSASTKGPSVFPLAPSSKSTSGGTAALGCLVKDYFPEPVTVSWNSGALTSGVHTFPAVLQSSGLYSLSSVVTVPSSSLGTQTYICNVNHKPSNTKVDKKVEPKSCDKTHTCPPCPAPELLGGPSVFLFPPKPKDTLMISRTPEVTCVVVDVSHEEPEVKFNWYVDGVEVHNAKTKPREEQYNSTYRVVSVLTVLHQDWLNGKEYKCKVSNDALPKPIEETISKAKGQPREPQVYTLPPSRCELTKNQVSLSCAVKGFYPSDIAVEWESNGQPENNYKTTPPVLDSDGSFFLVSKLTVDKSRWQQGNVFSCSVMHEALHNHYTQKSLSLSP
chain 3: DIQMTQSPSSLSASVGDRVTITCRASQDIHKYIAWYQQKPGQAPRLLIQYTSTLQPGVPSRFSGSGSGTDYTFTISSLQPEDIATYYCLQYEQLRTFGGGTKVEIKRTVAAPSVFIFPPSDEQLKSGTASVVCLLNNFYPREAKVQWKVDNALQSGNSQESVTEQDSKDSTYSLSSTLTLSKADYEKHKVYACEVTHQGLSSPVTKSFNRGEC
Turning to B3, the Kd stood at 0.73 nM with FcgRIIIa V; 0.18 nM with FcgRIa; 120 nM with FcgRIIb; 2.9 nM in the experiment with FcgRIIIa F; 16 nM in the experiment with FcgRIIa H; 8.9 nM with FcgRIIa R.

B4: H240-Kn228/H240-Hl214/L73-k0 (antibody)
chain 1: QDQLVQSGAEVKKPGASVKVSCKASGFNIKDTYIQWVRQAPGQGLEWMGRIDPLRKQTKYREKFEGRVTITADTSTNTAYMELSSLRSEDTAVYYCVRSGREFDYWGQGTLVTVSSASTKGPSVFPLAPSSKSTSGGTAALGCLVKDYFPEPVTVSWNSGALTSGVHTFPAVLQSSGLYSLSSVVTVPSSSLGTQTYICNVNHKPSNTKVDKKVEPKSCDKTHTCPPCPAPEDQWGPIVFLFPPKPKDTLMISRTPEVTCVVVDVSDEEPEVKFNWYVDGVEVHNAKTKPREEQYNATYRVVSVLTVLHQDWLNGKEYKCKVSNKALPAPIEKTISKAKGQPREPQVCTLPPSRDELTKNQVSLWCLVKGFYPSDIAVEWESNGQPENNYKTTPPVLDSDGSFFLYSKLTVDKSRWQQGNVFSCSVMHEALHNHYTQKSLSLSP
chain 2: QDQLVQSGAEVKKPGASVKVSCKASGFNIKDTYIQWVRQAPGQGLEWMGRIDPLRKQTKYREKFEGRVTITADTSTNTAYMELSSLRSEDTAVYYCVRSGREFDYWGQGTLVTVSSASTKGPSVFPLAPSSKSTSGGTAALGCLVKDYFPEPVTVSWNSGALTSGVHTFPAVLQSSGLYSLSSVVTVPSSSLGTQTYICNVNHKPSNTKVDKKVEPKSCDKTHTCPPCPAPELLGGPSVFLFPPKPKDTLMISRTPEVTCVVVDVSHEEPEVKFNWYVDGVEVHNAKTKPREEQYNSTYRVVSVLTVLHQDWLNGKEYKCKVSNDALPFPIEETISKAKGQPREPQVYTLPPSRCELTKNQVSLSCAVKGFYPSDIAVEWESNGQPENNYKTTPPVLDSDGSFFLVSKLTVDKSRWQQGNVFSCSVMHEALHNHYTQKSLSLSP
chain 3: DIQMTQSPSSLSASVGDRVTITCRASQDIHKYIAWYQQKPGQAPRLLIQYTSTLQPGVPSRFSGSGSGTDYTFTISSLQPEDIATYYCLQYEQLRTFGGGTKVEIKRTVAAPSVFIFPPSDEQLKSGTASVVCLLNNFYPREAKVQWKVDNALQSGNSQESVTEQDSKDSTYSLSSTLTLSKADYEKHKVYACEVTHQGLSSPVTKSFNRGEC
With B4, the dissociation constant Kd with FcgRIIIa V amounted to 0.77 nM; with FcgRIa, 0.12 nM; in the experiment with FcgRIIb, 2300 nM; with FcgRIIIa F, 1.9 nM; with FcgRIIa H, 270 nM; with FcgRIIa R, 320 nM.
